Drawing on article PMC3397886, this text covers Kd for one substance.

Assay [1] deals with A3B3D (A-His8/ΔCys, A-C255A/A-S232A/A-T235S, D/E48C) labelled with Cy3-maleimide on subunit D (Thermus thermophilus) (UniProt Q56403). Nature of the assay: FRET or BRET. In general terms: BRET reads energy transfer from a luciferase to a nearby fluorophore.
In assay [2] the target is V1 (A-His8/ΔCys, A-C255A/A-S232A/A-T235S/F-S54C) labelled with Cy3-maleimide on subunit F (Thermus thermophilus) (UniProt Q56403). Briefly: FRET or BRET.

By Kd is commonly meant the concentration at which binding is half-saturated. High values mean lower affinity, low ones higher affinity.

As to “Vo (C-S105C/C-C268S/C-C323S) labelled with Cy5-maleimide on subunit C (from UniProt P74902 1-323; P74901 1-188) (complex)”, the Kd in assay [1] is 1.1 nM; in assay [2], 0.26 nM.
